Laboratory results taken from the supplement of paper PMC12042874.
± gives the uncertainty stated by the source.

Assay: amyloid nucleation score (Sup35N fusion, yeast selection) (log enrichment); library NNK3; higher = more nucleation; inactive = no reads after selection
Method in brief: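 Random libraries were run with three technical output replicates. In each, psi-negative yeast expressing Sup35N fused to peptides of 20 random codons were induced 24 hours with 100 μM copper sulfate and grown 7 days at 30°C on medium lacking adenine and uracil, and input and output plasmid inserts were Illumina-sequenced. The nucleation score is the DiMSum log enrichment of output over input reads, centred on the mode score of non-aggregating sequences, and sequences under 100 input reads were excluded.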

| Substance | amyloid nucleation score |
| --- | --- |
| KWNNCDF | inactive |
| WNVLPATMMRFIRDMTGH | inactive |
| QNMFSSANRLMSTC | inactive |
| HWYVIKLSSNGCTFAVSLRV | inactive |
| ALLKD | inactive |
| IVYFPLILGAIIYWMSETHL | inactive |
| ILRCVFRGYMYYVMGSFYLT | inactive |
| GLISPRYATSSWLCQPIINF | inactive |
| VCYNLCRKIPDSLSKIPDRR | inactive |
| QHTAFLRKVSPSLRG | inactive |
| ENVPLNAAYCSL | inactive |
| PYVECSWEAQG | inactive |
| GDVLLY | inactive |
| RDRCISFEYAVQTCHYECRP | -0.294 ± 0.74 |
| QPCDHWHEDLNVCVVVIYAG | inactive |
| ILLMLSVQGNLLKRMRILSM | inactive |
| MGYPTISFCFNVYAFSVRIV | 0.697 ± 0.2 |
| LIFCNATGFTYRWPLTWVVM | inactive |
| RMYPHE | inactive |
| GACRCNCSSSDDPQNKRNML | inactive |
| YRKLVVSPLGILPKYRTPCC | inactive |
| PWGEILINGR | inactive |
| PFGWSVLGTGASGAEIQLVE | inactive |

| Substance | amyloid nucleation score |
| --- | --- |
| LRVVISLVIYMRSSTRICSV | inactive |
| GGAVMMALWGGLS | inactive |
| PHHSRYAFYGNPTLAI | inactive |
| YWVLRFRSSCGYSRMRLGPR | inactive |
| VIHEDMVLTGF | inactive |
| RVVNFFVGVNTNEAMFKRSV | 2.71 ± 0.067 |
| TFRYCTVLMFAVSFWQFHRC | inactive |
| VYCLRWKLYMLNEVS | inactive |
| RHVNEGLVRGFNPSRTLKGK | inactive |
| DCWYHMPHQIWH | inactive |
| NEIQAYIRWSI | inactive |
| YVGLDVVPGVLGIGFILLYD | inactive |
| DFFLDYL | inactive |
| RCWILISANHQKDFVSHIFY | 0.627 ± 0.36 |
| SVRYVETYSHRTNTVDAAFV | inactive |
| SSLLSEWNGGKSYNSVVDEV | inactive |
| INTEGLVVIVGGRLYVILRV | inactive |
| LVSDEPNLGFDN | inactive |
| ILIRITGAFYIMIINNRRLL | inactive |
| RGMKDCCTRWALRYWDVSVL | inactive |
| FNSILIVSLHLFSGFDSMR | 1.86 ± 0.093 |
| IGDDGFVN | inactive |
| CREVINDSFPNATWLHSGLV | inactive |

| Substance | amyloid nucleation score |
| --- | --- |
| VSLPSVIKYNDS | inactive |
| GATVLLSNFSVCPHMARSSG | inactive |
| RDFNMDTVRAVWISQILNSI | inactive |
| YDGQMVRVRLYPSWEQVYCV | -1.1 ± 1.4 |
| SKLFVSVSTTIYFEEPSPA | inactive |
| YIGIHLTSFRSTSSYYDRVL | inactive |
| TLYRGDKTRNFAMGIKLCMT | inactive |
| VCRFYIGFTYWLSCC | inactive |
| LCKDLDTSCVGSFYIFRQKG | inactive |
| MSSQCWRQIGWDTCARS | inactive |
| ACAFS | inactive |
| RYFVT | inactive |
| CVMCG | inactive |
| RRKLTAMVNTGEWMSQDDGS | inactive |
| SLFSGVYSFYY | inactive |
| YTSGLVNFVVMDPGL | inactive |
| STRRILCIP | -0.381 ± 0.8 |
| YVCLYEDLTYIA | inactive |
| DEYATRIGYWCCK | 1.7 ± 0.084 |
| YTCNSWILDANNLANEPVSK | inactive |
| AFVSPYR | inactive |
| ITRGTYRSPFSFNTRFESGS | inactive |
| NTDVVCMLNWLLTW | inactive |

| Substance | amyloid nucleation score |
| --- | --- |
| LCFNLYMFCSYVCGMAIKSL | inactive |
| SLILENLFVSFLTSKIILGF | inactive |
| SINSLFAESGLMLTFRMSSE | inactive |
| YLDKCIVVCFRVRNSNSFWL | 2.42 ± 0.065 |
| EYSFSLWSVSPAYTHITYGG | -0.192 ± 0.71 |
| MYGLLIKNSYRKRLDLSVSI | inactive |
| LWHVF | inactive |
| DMGKKSSLGNKWVIREAHMG | inactive |
| LCVPTSDRELGYRWFRAEWH | inactive |
| ADPDVR | inactive |
| FRHPIYCLDLSFSYRMKARG | 0.052 ± 0.28 |
| KRDLSVIGKCTLNNVSNHCA | inactive |
| RKGLL | inactive |
| LIDSADWRCVMVVIRLGRCR | inactive |
| YRRAREWGNDDFLNG | 0.785 ± 0.12 |
| YRQRWSRLCAGQSLYNCGKC | inactive |
| VVFGHAFYVTSHKTVLCSFG | inactive |
| LSGACVHSAAGSALATQYAR | inactive |
| GGHVSRRLHF | inactive |
| RRYGTDRLLMRYSIENFCVL | inactive |
| EDLMLVQF | inactive |
| TAESKRH | inactive |
| RAGATTFGVMVYKYDKFRQD | inactive |

| Substance | amyloid nucleation score |
| --- | --- |
| LSVMNSVRTWYIIDFATFSC | inactive |
| CLGAGLRSGSAARLYEFGQV | inactive |
| LSSLVSSSTSCWLWIRTNRL | inactive |
| TVRWDVSLMFMRPMMYGEPK | -0.13 ± 1.1 |
| VKLSSFCRSNNCWYMRHAFL | inactive |
| RYYGSFVEPRSFSRN | inactive |
| VFEAAALVCNCGTWDRGLND | 1.79 ± 0.1 |
| RRVQKERSLKC | inactive |
| FLSSVSLGDAHSWTFSR | inactive |
| VIRIGDPILTV | inactive |
| LIKSSRLCLNRWEWAAGSGM | inactive |
| IMKACGDK | inactive |
| YMLLQERLECSSLVDVSYVR | inactive |
| YYYGKWYLYEKHSVVFRGCR | inactive |
| EHGMVENRQRRFCLDWWDGM | inactive |
| LGFSVYSLA | inactive |
| QNSGFWIRMH | -1.38 ± 2.4 |
| FDDVGSNSLHCIMMHELLGV | inactive |
| IYSRVSRLIH | inactive |
| LYAFRDSCDTFSC | inactive |
| TRNYFNPVSRRGVTVSRGLY | inactive |
| SRVWTISWLNDGVGGRTQAE | inactive |
| AVVPAFDLLWRNRLITSMTS | inactive |

| Substance | amyloid nucleation score |
| --- | --- |
| CINNLYGRNVGSYGECEPFA | inactive |
| LDNDSWTRGLRGYLTYLRER | inactive |
| FFETRKYCGKEWFSGMLDMQ | inactive |
| MLNLRCSKCGMMPLRNRIVS | inactive |
| MSFWY | inactive |
| LWIIKGYKSYSNHQWNWGM | inactive |
| APSPPMNFSPCKLDLPCWAI | inactive |
| CSVTIGLIDTSPAIVSIPSD | inactive |
| DATSNC | -0.232 ± 0.73 |
| MNGDSAMWFSISS | inactive |
| FCCLEWNFIFNTSGHVSNNV | 3.31 ± 0.079 |
| RIYTYKRIYRIKVLITWNRL | inactive |
| PLAFWTCCYCLTWNLRLSWQ | 1.6 ± 0.059 |
| LARMTCYSDCGSNRGLRRVG | inactive |
| SRRVRAYIRVFGLCKGFAEC | inactive |
| LCHICDAVTSYLLP | -0.406 ± 1 |
| GCRGVTVHSADCCDLSIYLC | 2.31 ± 0.082 |
| SLLWSLSTYNVRIIHMM | inactive |
| HSINV | inactive |
| IVVQSNHAYTLVRTDSLVWM | 1.17 ± 0.11 |
| MILFC | inactive |
| AMVYMMNLEIHVYSIRYA | 1.68 ± 0.094 |
| IVNFACCVWSLYSSREFNML | 3.22 ± 0.07 |

| Substance | amyloid nucleation score |
| --- | --- |
| STGYYVMDVYLTVAYYVDSN | inactive |
| AVPDVKSAKVDLVNFILAVC | inactive |
| CGNHASVWRIGTVRKD | inactive |
| INPYVL | inactive |
| YRNLWNIHTVISIASL | inactive |
| ANCKG | inactive |
| LNVSRGWLVNILPYGCNI | inactive |
| DFGKNSLWSSREDNLKYWFM | inactive |
| MFVGP | inactive |
| LKVYR | inactive |
| TLCSHYYVV | inactive |
| SRCFLKKYCFLMTSILVRGI | inactive |
| VLCHQCWCRKIWPMN | inactive |
| TASTQSPYHFYCRV | inactive |
| SPFLCLLLDNEGKVLKVSYK | inactive |
| MCDKV | inactive |
| VRTLPDLLPINRKQMVKERM | inactive |
| LYLSLFGQVPYSS | -0.473 ± 0.98 |
| WNFNRVYHFLTIEMF | inactive |
| SFAGYRQIGRQGVWVIQVRH | inactive |
| RLRGVGIIVGGASQSSSQLR | inactive |
| GWLYYQLNLDNTSVRQHWSV | 0.587 ± 0.24 |
